Where two headings read alike, the source gives them in different places.
T1: SIRT3-FLAG (human, UniProt Q9NTG7 118-399)
T1 sequence (looked up): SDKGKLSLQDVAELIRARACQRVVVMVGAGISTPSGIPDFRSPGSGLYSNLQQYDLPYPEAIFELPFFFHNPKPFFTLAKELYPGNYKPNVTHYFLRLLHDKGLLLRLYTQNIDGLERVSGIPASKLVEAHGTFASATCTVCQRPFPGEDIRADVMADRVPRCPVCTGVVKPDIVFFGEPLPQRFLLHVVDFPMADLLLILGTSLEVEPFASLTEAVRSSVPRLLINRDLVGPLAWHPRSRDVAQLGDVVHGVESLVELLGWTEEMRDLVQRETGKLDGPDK


Tests used:
SIRT3-HA (HeLa) (human) = experiment: proximity ligation
SIRT3-FLAG [1] = target: T1, SIRT3-FLAG; experiment: BLI
SIRT3-FLAG [2] = target: T1, SIRT3-FLAG; experiment: BLI; remark: listed apart in the source

PLA signals per cell (signals per cell) (SIRT3-HA (HeLa) (human)) | percent of cells with PLA signal (SIRT3-HA (HeLa) (human)) | Kd (SIRT3-FLAG [1]) | Kd (SIRT3-FLAG [2]) | Binder
< 10 | 40% | – | – | ATP5O (endogenous, HeLa) (natural protein) FAKLVRPPVQVYGIEGRYATALYSAASKQNKLEQVEKELLRVAQILKEPKVAASVLNPYVKRSIKVKSLNDITAKERFSPLTTNLINLLAENGRLSNTQGVVSAFSTMMSVHRGEVPCTVTSASPLEEATLSELKTVLKSFLSQGQVLKLEAKTDPSILGGMIVRIGEKYVDMSVKTKIQKLGRAMREIV
– | – | 100 nM | 400 nM | ATP5O (recombinant) (domain or fragment, human, UniProt P48047 46-213, looked up) YSAASKQNKLEQVEKELLRVAQILKEPKVAASVLNPYVKRSIKVKSLNDITAKERFSPLTTNLINLLAENGRLSNTQGVVSAFSTMMSVHRGEVPCTVTSASPLEEATLSELKTVLKSFLSQGQVLKLEAKTDPSILGGMIVRIGEKYVDMSVKTKIQKLGRAMREIV
